Among the data in article PMC2856910 are fold enhancement of binding against β-cat alone values, retold here.

The target of this assay is β-cat bound to cadherin (in vitro binding studies, unpublished data) (UniProt Q02248).
UniProt Q02248, sequence (Q02248 whole entry, chain 1 of 2): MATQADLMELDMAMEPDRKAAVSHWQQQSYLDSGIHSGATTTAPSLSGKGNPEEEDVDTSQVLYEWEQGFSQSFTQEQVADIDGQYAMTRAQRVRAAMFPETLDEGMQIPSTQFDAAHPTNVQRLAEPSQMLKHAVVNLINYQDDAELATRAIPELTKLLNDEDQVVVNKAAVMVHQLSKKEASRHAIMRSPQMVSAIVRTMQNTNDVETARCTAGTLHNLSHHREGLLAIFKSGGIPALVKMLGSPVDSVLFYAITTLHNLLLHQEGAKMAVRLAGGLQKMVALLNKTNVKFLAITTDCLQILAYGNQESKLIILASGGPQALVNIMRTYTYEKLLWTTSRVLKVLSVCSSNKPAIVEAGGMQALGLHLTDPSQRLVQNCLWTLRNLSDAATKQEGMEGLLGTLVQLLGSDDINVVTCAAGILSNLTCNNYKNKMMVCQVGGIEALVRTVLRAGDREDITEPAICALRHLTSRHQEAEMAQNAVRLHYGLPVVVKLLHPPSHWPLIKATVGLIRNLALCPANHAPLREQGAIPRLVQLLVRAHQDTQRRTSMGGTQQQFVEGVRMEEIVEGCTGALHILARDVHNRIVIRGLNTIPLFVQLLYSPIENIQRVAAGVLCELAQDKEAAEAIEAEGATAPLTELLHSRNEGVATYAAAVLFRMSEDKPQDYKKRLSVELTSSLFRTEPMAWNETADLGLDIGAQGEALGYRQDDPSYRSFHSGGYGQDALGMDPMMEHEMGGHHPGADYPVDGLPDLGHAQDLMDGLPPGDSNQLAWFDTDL
UniProt Q02248, sequence (P09803 24-884, chain 2 of 2, further chain): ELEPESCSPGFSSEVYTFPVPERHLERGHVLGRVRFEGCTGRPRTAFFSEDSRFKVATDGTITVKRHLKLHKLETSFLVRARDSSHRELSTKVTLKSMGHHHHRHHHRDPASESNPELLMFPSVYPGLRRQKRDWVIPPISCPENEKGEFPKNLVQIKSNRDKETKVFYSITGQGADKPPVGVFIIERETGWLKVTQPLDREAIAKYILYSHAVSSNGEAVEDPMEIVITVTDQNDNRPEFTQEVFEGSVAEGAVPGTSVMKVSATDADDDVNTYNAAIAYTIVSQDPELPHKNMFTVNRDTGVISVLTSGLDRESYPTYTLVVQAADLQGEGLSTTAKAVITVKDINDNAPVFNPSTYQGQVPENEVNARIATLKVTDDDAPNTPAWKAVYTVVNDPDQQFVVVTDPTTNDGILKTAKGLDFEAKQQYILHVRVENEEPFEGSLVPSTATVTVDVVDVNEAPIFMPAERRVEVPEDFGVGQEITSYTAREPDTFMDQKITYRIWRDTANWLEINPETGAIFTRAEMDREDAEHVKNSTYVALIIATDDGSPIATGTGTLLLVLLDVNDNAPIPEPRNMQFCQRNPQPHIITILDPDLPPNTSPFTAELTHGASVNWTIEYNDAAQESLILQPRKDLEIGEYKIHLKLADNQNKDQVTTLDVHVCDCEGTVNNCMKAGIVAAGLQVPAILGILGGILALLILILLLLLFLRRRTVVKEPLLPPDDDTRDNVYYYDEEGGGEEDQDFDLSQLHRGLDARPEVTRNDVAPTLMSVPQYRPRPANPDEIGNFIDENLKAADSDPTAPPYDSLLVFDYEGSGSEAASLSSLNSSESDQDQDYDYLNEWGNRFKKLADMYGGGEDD

Take “α-catenin (in vitro binding studies, unpublished data) (from UniProt P26231 1-906) (natural protein)”: the fold enhancement of binding against β-cat alone was more than 10 fold.
